Results taken from publication PMC10397247.

T1: O7
T1 chain: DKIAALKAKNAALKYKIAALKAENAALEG

T2: O9
T2 chain: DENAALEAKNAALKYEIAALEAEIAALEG

T3: O8
T3 chain: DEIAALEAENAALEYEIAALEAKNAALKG

T4: O3
T4 chain: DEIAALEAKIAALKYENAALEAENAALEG

T5: O6
T5 chain: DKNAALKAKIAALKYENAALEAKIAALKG

T6: O4
T6 chain: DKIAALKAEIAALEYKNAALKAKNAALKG

T7: O5
T7 chain: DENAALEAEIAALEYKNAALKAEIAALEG

T8: 4H607-bH
T8 chain: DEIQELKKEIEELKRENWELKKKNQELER

T9: 4H72-bH
T9 chain: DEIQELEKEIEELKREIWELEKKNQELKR

T10: 4H3855-bH
T10 chain: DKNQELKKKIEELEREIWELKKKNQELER

T11: 4H953-bH
T11 chain: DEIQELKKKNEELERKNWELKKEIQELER

T12: 4H908-bH
T12 chain: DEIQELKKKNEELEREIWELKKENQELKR

T13: 4H967-bH
T13 chain: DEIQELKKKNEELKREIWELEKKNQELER

T14: 4H883-bH
T14 chain: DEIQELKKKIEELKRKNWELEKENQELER

T15: 4H3354-bH
T15 chain: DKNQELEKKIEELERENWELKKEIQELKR

T16: 4H797-bH
T16 chain: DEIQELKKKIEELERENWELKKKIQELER

T17: 4H3782-bH
T17 chain: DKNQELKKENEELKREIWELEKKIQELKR

T18: 4H3185-bH
T18 chain: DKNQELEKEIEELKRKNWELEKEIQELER

T19: 4H918-bH
T19 chain: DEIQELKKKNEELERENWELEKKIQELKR

T20: 4H717-bH
T20 chain: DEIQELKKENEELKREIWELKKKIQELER

T21: 4H568-bH
T21 chain: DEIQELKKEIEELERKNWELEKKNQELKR

T22: 4H454-bH
T22 chain: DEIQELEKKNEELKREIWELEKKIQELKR

T23: 4H3427-bH
T23 chain: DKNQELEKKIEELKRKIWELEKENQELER

T24: 4H338-bH
T24 chain: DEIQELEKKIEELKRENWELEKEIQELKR

T25: 4H687-bH
T25 chain: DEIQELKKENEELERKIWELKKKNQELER

T26: 4H754-bH
T26 chain: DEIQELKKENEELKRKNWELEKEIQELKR

T27: 4H331-bH
T27 chain: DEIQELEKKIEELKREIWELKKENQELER

T28: 4H4001-bN
T28 chain: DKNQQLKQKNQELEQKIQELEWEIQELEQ

T29: O9
T29 chain: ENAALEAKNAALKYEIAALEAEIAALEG

T30: O8
T30 chain: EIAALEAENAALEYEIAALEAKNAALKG

T31: O5
T31 chain: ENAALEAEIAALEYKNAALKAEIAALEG

T32: O7
T32 chain: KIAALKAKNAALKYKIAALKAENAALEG

T33: O4
T33 chain: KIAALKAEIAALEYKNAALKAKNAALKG

T34: O6
T34 chain: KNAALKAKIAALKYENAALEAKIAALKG

T35: 4H4073-bH
T35 chain: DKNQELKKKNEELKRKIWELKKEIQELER

T36: 4H3112-bH
T36 chain: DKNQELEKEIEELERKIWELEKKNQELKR

T37: 4H346-bH
T37 chain: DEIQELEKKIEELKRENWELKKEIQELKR

T38: 4H855-bH
T38 chain: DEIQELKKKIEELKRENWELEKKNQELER

T39: 4H575-bH
T39 chain: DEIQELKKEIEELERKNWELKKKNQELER

T40: 4H968-bH
T40 chain: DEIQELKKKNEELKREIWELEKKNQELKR

T41: 4H4001-bH
T41 chain: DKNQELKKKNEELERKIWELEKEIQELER

T42: 4H457-bH
T42 chain: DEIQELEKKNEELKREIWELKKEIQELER

T43: 4H780-bH
T43 chain: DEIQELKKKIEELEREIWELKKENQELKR

T44: 4H319-bA
T44 chain: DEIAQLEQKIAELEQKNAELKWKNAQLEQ

T45: 4H3926-bH
T45 chain: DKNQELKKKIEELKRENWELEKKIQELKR

T46: 4H683-bH
T46 chain: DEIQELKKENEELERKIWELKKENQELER


Experiments:
O7 [1] = target: T1, O7; assay: two-hybrid library CCNG1;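 also: natural log of median RNA to DNA barcode read ratio; higher means stronger binding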
O9 [2] = target: T2, O9; assay: two-hybrid library CCNG1;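 also: natural log of median RNA to DNA barcode read ratio; higher means stronger binding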
O8 [3] = target: T3, O8; assay: two-hybrid library CCNG1;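 also: natural log of median RNA to DNA barcode read ratio; higher means stronger binding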
O3 = target: T4, O3; assay: two-hybrid library CCNG1;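 also: natural log of median RNA to DNA barcode read ratio; higher means stronger binding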
O6 [4] = target: T5, O6; assay: two-hybrid library CCNG1;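 also: natural log of median RNA to DNA barcode read ratio; higher means stronger binding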
O4 [5] = target: T6, O4; assay: two-hybrid library CCNG1;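 also: natural log of median RNA to DNA barcode read ratio; higher means stronger binding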
O5 [6] = target: T7, O5; assay: two-hybrid library CCNG1
4H607-bH = target: T8, 4H607-bH; assay: two-hybrid library CCNG1
4H72-bH = target: T9, 4H72-bH; assay: two-hybrid library CCNG1
4H3855-bH = target: T10, 4H3855-bH; assay: two-hybrid library CCNG1
4H953-bH = target: T11, 4H953-bH; assay: two-hybrid library CCNG1
4H908-bH = target: T12, 4H908-bH; assay: two-hybrid library CCNG1
4H967-bH = target: T13, 4H967-bH; assay: two-hybrid library CCNG1
4H883-bH = target: T14, 4H883-bH; assay: two-hybrid library CCNG1
4H3354-bH = target: T15, 4H3354-bH; assay: two-hybrid library CCNG1
4H797-bH = target: T16, 4H797-bH; assay: two-hybrid library CCNG1
4H3782-bH = target: T17, 4H3782-bH; assay: two-hybrid library CCNG1
4H3185-bH = target: T18, 4H3185-bH; assay: two-hybrid library CCNG1
4H918-bH = target: T19, 4H918-bH; assay: two-hybrid library CCNG1
4H717-bH = target: T20, 4H717-bH; assay: two-hybrid library CCNG1
4H568-bH = target: T21, 4H568-bH; assay: two-hybrid library CCNG1
4H454-bH = target: T22, 4H454-bH; assay: two-hybrid library CCNG1
4H3427-bH = target: T23, 4H3427-bH; assay: two-hybrid library CCNG1
4H338-bH = target: T24, 4H338-bH; assay: two-hybrid library CCNG1
4H687-bH = target: T25, 4H687-bH; assay: two-hybrid library CCNG1
4H754-bH = target: T26, 4H754-bH; assay: two-hybrid library CCNG1
4H331-bH = target: T27, 4H331-bH; assay: two-hybrid library CCNG1
4H4001-bN = target: T28, 4H4001-bN; assay: two-hybrid library CCNG1
O9 [7] = target: T29, O9; assay: two-hybrid library CC0; conditions: mean of both orientations
O8 [8] = target: T30, O8; assay: two-hybrid library CC0; conditions: mean of both orientations
O5 [9] = target: T31, O5; assay: two-hybrid library CC0; conditions: mean of both orientations
O7 [10] = target: T32, O7; assay: two-hybrid library CC0; conditions: mean of both orientations
O4 [11] = target: T33, O4; assay: two-hybrid library CC0; conditions: mean of both orientations
O6 [12] = target: T34, O6; assay: two-hybrid library CC0; conditions: mean of both orientations
4H4073-bH = target: T35, 4H4073-bH; assay: two-hybrid library CCNG1
4H3112-bH = target: T36, 4H3112-bH; assay: two-hybrid library CCNG1
4H346-bH = target: T37, 4H346-bH; assay: two-hybrid library CCNG1
4H855-bH = target: T38, 4H855-bH; assay: two-hybrid library CCNG1
4H575-bH = target: T39, 4H575-bH; assay: two-hybrid library CCNG1
4H968-bH = target: T40, 4H968-bH; assay: two-hybrid library CCNG1
4H4001-bH = target: T41, 4H4001-bH; assay: two-hybrid library CCNG1
4H457-bH = target: T42, 4H457-bH; assay: two-hybrid library CCNG1
4H780-bH = target: T43, 4H780-bH; assay: two-hybrid library CCNG1
4H319-bA = target: T44, 4H319-bA; assay: two-hybrid library CCNG1
4H3926-bH = target: T45, 4H3926-bH; assay: two-hybrid library CCNG1
4H683-bH = target: T46, 4H683-bH; assay: two-hybrid library CCNG1

Binder | interaction score (4H607-bH) | interaction score (4H72-bH) | interaction score (4H3855-bH) | interaction score (4H953-bH) | interaction score (4H908-bH) | interaction score (4H967-bH) | interaction score (4H883-bH) | interaction score (4H3354-bH) | interaction score (4H797-bH) | interaction score (4H3782-bH) | interaction score (4H3185-bH) | interaction score (4H918-bH) | interaction score (4H717-bH) | interaction score (4H568-bH) | interaction score (4H454-bH) | interaction score (4H3427-bH) | interaction score (4H338-bH) | interaction score (4H687-bH) | interaction score (4H331-bH) | further results
DEIAALEAKIAALKYENAALEAENAALEG [O3] |  |  |  |  |  |  |  |  |  |  |  |  |  |  |  |  |  |  |  | interaction score (O7 [1]): -2.58; interaction score (O9 [2]): -2.28; interaction score (O8 [3]): -2.29; interaction score (O3): -2.29; interaction score (O6 [4]): -2.73; interaction score (O4 [5]): 2.05; interaction score (O5 [6]): -2
DKNQELEKEIEELKRKNWELEKEIQELER [4H3185-bH] | -0.833 | -1.26 | -0.899 | -1.21 | -0.797 | -1.56 | -0.72 | -0.583 | -1.22 | -0.522 | 0.0268 | -1.09 | -0.724 | -2.61 | -1.16 | -0.801 | -0.56 | -0.899 | -0.701 | interaction score (4H754-bH): -1.15; interaction score (4H4001-bN): 0
KIAALKAEIAALEYKNAALKAKNAALKG [O4] |  |  |  |  |  |  |  |  |  |  |  |  |  |  |  |  |  |  |  | interaction score (O9 [7]): -2.71; interaction score (O8 [8]): -2.63; interaction score (O5 [9]): -2.68; interaction score (O7 [10]): -2.75; interaction score (O4 [11]): -2.65; interaction score (O6 [12]): -2.42
DKNQELEKEIEELERKIWELEKKNQELKR [4H3112-bH] | 0.768 | 0.428 | 0.754 | -0.641 | -0.43 | 1.34 | 0.871 | 0.156 | -0.951 | 0.0549 | -0.575 | 0.72 | -0.259 | -0.443 | 0.624 | 1.07 | 1.72 | -0.713 | 0.991 | interaction score (4H4073-bH): 1.57; interaction score (4H3112-bH): 1.18; interaction score (4H346-bH): 0.584; interaction score (4H855-bH): -2.78; interaction score (4H575-bH): -0.872; interaction score (4H968-bH): 1.05; interaction score (4H4001-bH): 0.971; interaction score (4H457-bH): -1.29; interaction score (4H780-bH): 0.704; interaction score (4H319-bA): -3.07; interaction score (4H3926-bH): 0.42; interaction score (4H683-bH): 0.204
